Consider two molecules from US20210244815A1 (Genentech, published 2021).

Assay [1] concerns the target CD3. As to the kind of experiment: method not stated.
Assay [2] deals with T1, CD3ε (UniProt P07766 23-126, limits assumed).
T1 construct: The antigen in the Biacore assay is called only 'CD3ε'; also called CD3ε antigen
Description: SPR, Biacore T200, CD3ε immobilized on CM5, Fab injected. The method, then:
The binding affinity of selected Fab variants for CD3ε was measured by SPR with a BIACORE® T200 instrument. Briefly, a series S sensor chip CM5 was activated with 1-ethyl-3-(3-dimethylaminopropyl) carbodiimide (EDC) and N-hydroxysuccinimide (NHS) reagents according to the supplier's instructions, and 5 μg/ml CD3ε in 10 mM sodium acetate (pH4.0) was coupled to achieve 100 response units (RU), except for FC1 (which served as a reference). Unreacted groups were then blocked with 1 M ethanolamine. Next, three-fold serial dilutions of Fab in HBS-P buffer (0.01 M HEPES pH 7.4, 0.15M NaCl, 0.005% surfactant P20) from low (0.02 nM) to high (20 nM) were injected (flow rate: 30 μl/min). The binding responses on Fab were corrected by subtracting of RU from a blank flow cell. The sensorgram was recorded and subject to reference and buffer subtraction before evaluating by BIACORE® T200 Evaluation Software (Version 2.0). Association rates (kₐ) and dissociation rates (kd) were calculated using a simple one-to-one Langmuir binding model. The equilibrium dissociation constant (KD) was calculated as the ratio of kd/kₐ. The binding affinity kinetics were determined for a high-affinity anti-CD3 Fab, 38E4v11, having the heavy chain and light chain variable domain sequences set forth in FIG. 1.

T1 sequence (P07766 23-126 limits assumed): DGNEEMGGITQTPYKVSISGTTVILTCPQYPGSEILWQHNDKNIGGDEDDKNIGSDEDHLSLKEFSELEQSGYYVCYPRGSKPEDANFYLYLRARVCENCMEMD
CD3, sequence (P07766 22-207): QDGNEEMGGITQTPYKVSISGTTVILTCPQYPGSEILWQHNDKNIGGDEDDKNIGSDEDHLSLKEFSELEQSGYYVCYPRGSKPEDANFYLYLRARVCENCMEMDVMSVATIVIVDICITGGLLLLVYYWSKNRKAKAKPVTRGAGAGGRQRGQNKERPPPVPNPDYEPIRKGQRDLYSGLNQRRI

B1: Ly6G6D (40G5c) TDB (bispecific antibody, part only; not given: anti-Ly6G6D arm and constant regions, V domains shown, not shown: another chain or arm of the molecule; a dimerising Fc or GST; small tags and cut ends)
VH: QVQLQQSGPELVKPGASVKISCKASGYTFTNYYIHWVKQRPGQGLEWIGWIYPGDGNTKYNEKFKGKATLTADTSSSTAYMQLSSLTSEDSAVYYCARDSYSNYYFDYWGQGTTLTVSS
VL: DIVMTQSPSSLAVSAGEKVTMSCKSSQSLLNSRTRKNYLAWYQQKPGQSPKLLIYWASTRESGVPDRFTGSGSGTDFTLTISSVQAEDLAVYYCTQSFILRTFGGGTKLEIK
The molecule B1 gave a Kd in assay [1] of 51 nM.

B2: anti-CD3 Fab 38E4v11 (Fab, V domains shown)
VH: EVQLVQSGAEVKKPGASVKVSCKASGFTFTSYYIHWVRQAPGQGLEWIGWIYPENDNTKYNEKFKDRVTITADTSTSTAYLELSSLRSEDTAVYYCARDGYSRYYFDYWGQGTLVTVSS
VL: DIVMTQSPDSLAVSLGERATINCKSSQSLLNSRTRKNYLAWYQQKPGQSPKLLIYWTSTRKSGVPDRFSGSGSGTDFTLTISSLQAEDVAVYYCTQSFILRTFGQGTKVEIK
notes: Tested as a Fab from a mammalian Fab expression construct with a Flag tag (293T cells, purified on an anti-Flag column)
On to B2, for which, in assay [2], the “fold increase in binding affinity relative to parent 38E4v1” value was above 10 fold.
